Results on two compounds are retold here after PMC11055835, “Small animal PET imaging with the ^68Ga-labeled pH (low) insertion peptide-like peptide YJL-4 in a triple-negative breast cancer mouse model” (EJNMMI Radiopharmacy and Chemistry, 2024).

Data set [1] is described as follows: Serum stability in human serum. The format is in vitro ADME. The protocol: (§1) Two hundred microliters of each ^68Ga-labeled peptide (18.5 MBq) was mixed with 1.0 mL of fresh human serum (or mouse serum) and incubated at 37 °C, and the radiochemical purity was detected at 30, 60, 120, and 240 min after mixing.
Data set [2] is described as follows: Serum stability in mouse serum. The format is in vitro ADME. The protocol:
as §1

A short description of data set [3]: Serum protein binding. The format is in vitro ADME, mouse. The protocol:
The resulting mixture was vortexed for 1 min and centrifuged (13,000 rpm) for 5 min. The supernatant was transferred to a 1.7 ml Eppendorf tube and then further centrifuged at 13,000 rpm for 2 min. The supernatant and sediment were collected separately, and the radioactivity was measured with a gamma counter to determine the serum protein binding of the radiotracer.

The nature of data set [4]: In vivo biodistribution. Details: species or system BALB/c nude mice. The note with it: female, BALB/c nude, mouse, iv, 1.85 MBq/200 uL, total radioactivity. An excerpt: Twenty-four four- to five-week-old female specific pathogen-free (SPF) BALB/c nude mice (Hangzhou Ziyuan Experimental Animal Technology Co., Ltd., China, license number: […] The animal studies were approved by the ethics committee of Qingdao University, and the management of the animals adhered to the animal ethics standards. Eighteen tumor-bearing nude mice were selected for in vivo biodistribution experiments when the tumor diameter reached 0.8–1.0 cm. Mice were randomly divided into two groups: a YJL-4 group and a control group with 9 mice per group; each group had three time points. […] The mice were humanely sacrificed 1 h, 2 h, or 4 h after injection. The brain, heart, lungs, liver, kidneys, stomach, small intestine, blood, muscles, bones, and tumor were collected and weighed, and the radioactivity was measured. The biodistribution results are expressed as the percent of the injected dose per gram of tissue (% ID/g).

Data set [5] has as its system MDA-MB-231 tumor-bearing nude mice. As to the kind of experiment: Small animal PET imaging. Type of data set: in vivo, BALB/c nude mice. The note with it: 2 and 4 h after injection, approx. 7.4 MBq/200 μL via tail vein, static 10-min PET, n = 3. On the procedure:
Human breast cancer cells (MDA-MB-231 cells from the Cell Bank of the Chinese Academy of Sciences) were cultured in high-glucose DMEM supplemented with 10% fetal bovine serum and 1% double antibiotic mixture (penicillin‒streptomycin mixture) at 37 °C in 5% CO2. Twenty-four four- to five-week-old female specific pathogen-free (SPF) BALB/c nude mice (Hangzhou Ziyuan Experimental Animal Technology Co., Ltd., China, license number: SCXK(Zhe) 2019–0004) were used to establish the MDA-MB-231 tumor model by subcutaneously inoculating 0.1 mL of cell suspension (50 µL of PBS + 50 µL of Matrigel) containing 1 × 10^6 MDA-MB-231 cells at the base of the right forelimb of each mouse. The animal studies were approved by the ethics committee of Qingdao University, and the management of the animals adhered to the animal ethics standards.
Six tumor-bearing nude mice were selected for imaging when the tumor diameter reached 0.8–1.0 cm. Mice were randomly divided into two groups: a YJL-4 group and a control group, with 3 mice per group; each group had two time points. Each tumor-bearing nude mouse was injected with approximately 7.4 MBq/200 μL of ^68Ga-YJL-4 or ^68Ga-kVar7 through the tail vein, and the mice were anesthetized with 2% isoflurane at 2 and 4 h after injection and imaged using static 10-min PET and moderate-resolution whole-body CT. […]

Structures are written as SMILES. Like-named read-outs stand apart in the source and are kept apart here. Peptide text beside a SMILES is read from it. * marks the point of attachment. X1 = O=C(O)CN1CCN(CC(=O)O)CC(Cc2ccc(NC(=S)*)cc2)N(CC(=O)O)CC1; NOTA = O=C(O)CN1CCN(CC(=O)O)CCN(CC(=O)*)CC1; Ahx = NCCCCCC(=O)O

Regarding `CC(C)C[C@H](NC(=O)[C@H](CC(=O)O)NC(=O)[C@H](CC(C)C)NC(=O)[C@H](CC(C)C)NC(=O)[C@H](CC(C)C)NC(=O)[C@@H](NC(=O)[C@H](CC(=O)O)NC(=O)[C@@H](NC(=O)[C@@H]1CCCN1C(=O)[C@H](Cc1ccccc1)NC(=O)[C@H](CC(C)C)NC(=O)[C@H](CC(C)C)NC(=O)[C@H](CC(=O)O)NC(=O)[C@H](C)NC(=O)[C@H](Cc1ccc(O)cc1)NC(=O)[C@H](CCCNC(=N)N)NC(=O)[C@H](C)NC(=O)[C@H](Cc1c[nH]c2ccccc12)NC(=O)[C@@H]1CCCN1C(=O)[C@H](CC(N)=O)NC(=O)[C@H](CCC(N)=O)NC(=O)[C@H](CC(=O)O)NC(=O)[C@H](CC(=O)O)NC(=O)[C@H](CS)NC(=O)[C@H](C)NC(=O)CCCCCNC(=S)Nc1ccc(CC2CN(CC(=O)O)CCN(CC(=O)O)CCN2CC(=O)O)cc1)[C@@H](C)O)[C@@H](C)O)C(N)=O` (stereo partly drawn) [^68Ga-YJL-4, metal not drawn] ({X1-Ahx}-ACDDQNPWARYADLLFPTDTLLLDL-NH2), the “Radiochemical purity after incubation in human serum” value in data set [1] is listed as around 95%. Also, in data set [2], the “Radiochemical purity after incubation in mouse serum” value is around 95%. Moreover, in data set [3] (mouse, serum), the fraction unbound at 30 min is 0.678 and the fraction unbound at 120 min is 0.685. In data set [4] (Biodistribution in tumors), the tissue uptake at 1 h is 5.94 ± 1.27 %ID/g, the tissue uptake at 2 h is 6.72 ± 1.69 %ID/g and the tissue uptake at 4 h came out at 4.54 ± 0.58 %ID/g. Besides, in data set [4] (Distribution in the blood), the tissue uptake at 1 h stood at 19.6 ± 3.92 %ID/g, the tissue uptake at 2 h was found to be 8.23 ± 3.47 %ID/g and the tissue uptake at 4 h stood at 3.38 ± 1.91 %ID/g. Besides, in data set [4] (Distribution in the liver), the tissue uptake at 1 h was 20.5 ± 3.64 %ID/g, the tissue uptake at 2 h came to 14.5 ± 3.98 %ID/g and the tissue uptake at 4 h was determined as 10.2 ± 2.77 %ID/g. Moreover, in data set [5], the “Visualization of tumors by PET” value is “clearly visualized”.

As to `CC(C)C[C@H](NC(=O)[C@H](CCCCN)NC(=O)[C@H](CC(C)C)NC(=O)[C@H](CC(C)C)NC(=O)[C@H](CC(C)C)NC(=O)[C@@H](NC(=O)[C@H](CCCCN)NC(=O)[C@@H](NC(=O)[C@@H]1CCCN1C(=O)[C@H](Cc1ccccc1)NC(=O)[C@H](CC(C)C)NC(=O)[C@H](Cc1c[nH]c2ccccc12)NC(=O)[C@H](CCCCN)NC(=O)[C@H](CC(C)C)NC(=O)[C@H](Cc1ccc(O)cc1)NC(=O)[C@H](CCCNC(=N)N)NC(=O)[C@H](C)NC(=O)[C@H](Cc1c[nH]c2ccccc12)NC(=O)[C@@H]1CCCN1C(=O)[C@H](CC(N)=O)NC(=O)[C@H](CCC(N)=O)NC(=O)[C@H](CCC(=O)O)NC(=O)[C@H](CCC(=O)O)NC(=O)[C@H](CS)NC(=O)[C@H](C)NC(=O)CN1CCN(CC(=O)O)CCN(CC(=O)O)CC1)[C@@H](C)O)[C@@H](C)O)C(N)=O` [^68Ga-kVar7, metal not drawn, reference compound] ({NOTA}-ACEEQNPWARYLKWLFPTKTLLLKL-NH2; N-terminus assumed), the “Radiochemical purity after incubation in human serum” value in data set [1] (200 µL labeled peptide (18.5 MBq) in 1.0 mL fresh human serum, 37 °C, 240 min) was around 95%. Besides, in data set [2] (200 µL labeled peptide (18.5 MBq) in 1.0 mL mouse serum, 37 °C, 240 min), the “Radiochemical purity after incubation in mouse serum” value is around 95%. Further, the fraction unbound at 30 min in data set [3] (mouse serum, 37 °C, 30 min, 0.37 MBq, acetonitrile precipitation, gamma counter, mean ± SD, read-out: Serum protein binding rate (converted)) is 0.723. For the same compound, the “Serum protein binding rate” value in data set [3] (mouse serum, 37 °C, 60 min, 0.37 MBq, acetonitrile precipitation, gamma counter, mean ± SD) is recorded as 27.89 ± 2.02%; in data set [3] (mouse serum, 37 °C, 240 min, 0.37 MBq, acetonitrile precipitation, gamma counter, mean ± SD), 27.54 ± 0.86%. In data set [3] (mouse serum, 37 °C, 120 min, 0.37 MBq, acetonitrile precipitation, gamma counter, mean ± SD, read-out: Serum protein binding rate (converted)), the fraction unbound at 120 min is 0.75. For the same compound, the tissue uptake at 1 h was found to be 20.6 ± 4.73 %ID/g in data set [4] (1 h after injection, 1.85 MBq/200 μL via tail vein, mean ± SD, n = 3, read-out: Distribution in the blood) and 21.3 ± 2.93 %ID/g in data set [4] (1 h after injection, 1.85 MBq/200 μL via tail vein, mean ± SD, n = 3, read-out: Distribution in the liver). Besides, the tissue uptake at 2 h in data set [4] (2 h after injection, 1.85 MBq/200 μL via tail vein, mean ± SD, n = 3, read-out: Distribution in the blood) turned out to be 9.88 ± 2.71 %ID/g; in data set [4] (2 h after injection, 1.85 MBq/200 μL via tail vein, mean ± SD, n = 3, read-out: Distribution in the liver) it was 14.8 ± 3.87 %ID/g. The tissue uptake at 4 h in data set [4] (4 h after injection, 1.85 MBq/200 μL via tail vein, mean ± SD, n = 3, read-out: Distribution in the blood) amounted to 3.17 ± 1.6 %ID/g; in data set [4] (4 h after injection, 1.85 MBq/200 μL via tail vein, mean ± SD, n = 3, read-out: Distribution in the liver), 11 ± 2.77 %ID/g. Further, the “Visualization of tumors by PET” value in data set [5] is “not visualized”.
